The results in this text go back to PMC3158298.

This assay addresses CC-Aβ_(1-40)E22Δ. The assay can be described thus: split tetra-Cys FlAsH fluorescence.

For CC-Aβ_(1-40)E22Δ (peptide), the FlAsH fluorescence intensity relative to CC-Aβ (1-40) is 1.5 fold.
